Experimental data published in patent US6391584B1, “Expression-cloning method for identifying target proteins for eukaryotic tyrosine kinases and novel target proteins” (New York University Medical Center, priority 1991, dated 2002).

Legend:
[1] = target: trpE/GAP SH2 fusion protein (GAP residues 171-448) (UniProt P00895); assay: filter binding: 32P-labelled probe on fusion protein spotted on nitrocellulose
[2] = target: tyrosine phosphorylated wild-type EGF receptor, full length (human) (UniProt P00533); assay: immunoprecipitated autophosphorylated EGFR, anti-PLC-γ blot with 125I-protein A, bands counted
[3] = system: GRB2 phosphorylation in HER14 cells; assay: GRB2 phosphorylation in (32P) orthophosphate-labelled, EGF stimulated HER14 cells; type: cell-based; details: vanadate (200 μM) at 37° C. for 20 min prior to the addition of EGF
Procedure: Labeling cells with (^32P)-orthophosphate were carried out as previously described (Li et al., Mol. Biol. Cell 2:641-649, 1991). Briefly, confluent HER14 cells starved for 16 hrs in 1% FCS/DMEM were incubated for two hours in Pi-free media, and labeled for two hours in Pi-free media, dialyzed FBS, 1 mCi/ml orthophosphate (carrier free, 314.5-337.5 TBq/mmole, purchased form NEN, Wilmington, Del.) at 37° C. Where appropriate, cells were incubated with vanadate (200 μM) at 37° C. for the last 20 minutes of cell labeling. Cells were then stimulated for two minutes with EGF (250 ng/ml) or PDGF (50 ng/ml), rapidly washed 2 times with ice cold phosphate-buffered saline (PBS), and solubilized immediately in lysis buffer (10 mM Tris-Cl pH 7.6, 50 mM NaCl, […] sodium pyrophosphate, 50 mM sodium fluoride, 100 μM sodium orthovanadate, 5 μM ZnCl2, 1 mM PMSF and 0.5% Triton-X-100). […]
To determine if the failure to detect tyrosine phosphorylated GRB2 was due to the rapid dephosphorylation by a protein tyrosine phosphatase, a potent tyrosine phosphatase inhibitor, vanadate, was tested for its effects upon GRB2 phosphorylation. (^32p) orthophosphate-labelled cells were incubated with or without vanadate at 37° C. for 20 min prior to the addition of EGF, and GRB2 phosphorylation was assessed as described above.

[4] = target: T1, tyrosine phosphorylated EGFR-C (intracellular domain of the EGF receptor, baculovirus expressed) (human, UniProt P00533 669-1210, tyrosine autophosphorylated with MnCl2 and ATP; positions not given); assay: EGFR-C immunoprecipitated with antibody C, anti-trpE immunoblot
T1 construct: domain: intracellular domain; Produced in baculovirus-infected SF9 cells; also called EGFR cytoplasmic domain; phosphorylated kinase
Procedure: In FIG. 12A, EGFR-C (0.5 μg) was immunoprecipitated with antibody C and washed. […] The immunoprecipitates were separated on a 10% SDS-gel, transferred to nitrocellulose and immunoblotting was performed with anti-trpE. […] Phosphorylated or non-phosphorylated EGFR-C (0.5 μg) was then added and allowed to bind as above. After washing, samples were separated on a 10% gel, transferred to nitrocellulose and probed with antibody C. The two samples on the right represent 0.5 μg of phosphorylated and non-phosphorylated kinase loaded directly onto the gel (exposure time: 2 h).

EGFR-C = target: T2, EGFR-C (Homo sapiens, UniProt P00533); assay: Binding of trpE/GAP SH2 fusion protein to baculovirus expressed EGFR-C (immunoprecipitation / immunoblot); details: phosphorylated vs non-phosphorylated EGFR-C, FIG. 12A
T2 construct: EGFR-C represents a deletion mutant containing the cytoplasmic domain of the EGF receptor produced by baculovirus-infected SF9 cells; made in house; host or cells: baculovirus-infected SF9 insect cells
Procedure: FIGS. 12A and 12B are representations of a gel pattern showing binding of EGFR-C to trpE proteins. In FIG. 12A, EGFR-C (0.5 μg) was immunoprecipitated with antibody C and washed. MnCl2 alone or MnCl2 and ATP were then added to facilitate autophosphorylation of TrpE or trpE/GAP SH2 (approximately 2 μg). The immunoprecipitates were separated on a 10% SDS-gel, transferred to nitrocellulose and immunoblotting was performed with anti-trpE. For comparison, about 0.1 μg of trpE or trpE/GAP SH2 lysate was loaded directly on to the gel (right panel of 12A). In FIG. 12B, trpE or trpE/GAP SH2 was immunoprecipitated with anti-trpE antibodies and washed. Phosphorylated or non-phosphorylated EGFR-C (0.5 μg) was then added and allowed to bind as above. After washing, samples were separated on a 10% gel, transferred to nitrocellulose and probed with antibody C. The two samples on the right represent 0.5 μg of phosphorylated and non-phosphorylated kinase loaded directly onto the gel (exposure time: 2 h). The preparation of trpE fusion proteins containing the GAP SH2 domain (GAP residues 171-448, 10 FIG. 9B) has been described by Moran, M. F. et al., Proc. Natl. Acad. Sci. USA 87: 8622-8626 (1990). Bacterial lysates containing trpE/GAP SH2 fusion proteins were prepared by resuspending 1 g of bacteria in 3 ml of 50 mM Tris pH 7.5, 0.5 mm EDTA, 0.1 mm PMSF. […]

tyrosine phosphorylated C-terminal CNBr fragment of the EGF receptor (EGFR 984/1186) (from UniProt P00533 1008-1210)
amount of spotted fusion protein at which binding was still detected [1]: < 5 ng

PLC-γ (phosphatidylinositol specific phospholipase C-γ), non-phosphorylated, from 3TP1 cell lysate (enzyme)
percent remaining bound after three washes with HNTG [2]: 50%

[O]=[V]([O-])([O-])[O-] [Vanadate, vanadate]
effect on GRB2 phosphorylation [3]: did not result in detectable GRB2 phosphorylation

B1: trpE protein alone (other, UniProt P00895 1-323, looked up)
chain: MQTQKPTLELLTCEGAYRDNPTALFHQLCGDRPATLLLESADIDSKDDLKSLLLVDSALRITALGDTVTIQALSGNGEALLALLDNALPAGVESEQSPNCRVLRFPPVSPLLDEDARLCSLSVFDAFRLLQNLLNVPKEEREAMFFGGLFSYDLVAGFEDLPQLSAENNCPDFCFYLAETLMVIDHQKKSTRIQASLFAPNEEEKQRLTARLNELRQQLTEAAPPLPVVSVPHMRCECNQSDEEFGGVVRLLQKAIRAGEIFQVVPSRRFSLPCPSPLAAYYVLKKSNPSPYMFFMQDNDFTLFGASPESSLKYDATSRQIEI
notes: Control for the trpE/GAP SH2 fusion; also called bacterial protein alone
binding result [4]: no binding

B2: trpe protein: bacterial trpE protein alone, used as control for the fusion protein (protein)
chain: MQTQKPTLELLTCEGAYRDNPTALFHQLCGDRPATLLLESADIDSKDDLKSLLLVDSALRITALGDTVTIQALSGNGEALLALLDNALPAGVESEQSPNCRVLRFPPVSPLLDEDARLCSLSVFDAFRLLQNLLNVPKEEREAMFFGGLFSYDLVAGFEDLPQLSAENNCPDFCFYLAETLMVIDHQKKSTRIQASLFAPNEEEKQRLTARLNELRQQLTEAAPPLPVVSVPHMRCECNQSDEEFGGVVRLLQKAIRAGEIFQVVPSRRFSLPCPSPLAAYYVLKKSNPSPYMFFMQDNDFTLFGASPESSLKYDATSRQIEI
binding to EGFR-C (EGFR-C): did not bind

B3: trpE/GAP SH2 fusion protein: bacterially expressed trpE fusion protein containing the GAP SH2 domain (GAP residues 171-448) (protein)
chain: MQTQKPTLELLTCEGAYRDNPTALFHQLCGDRPATLLLESADIDSKDDLKSLLLVDSALRITALGDTVTIQALSGNGEALLALLDNALPAGVESEQSPNCRVLRFPPVSPLLDEDARLCSLSVFDAFRLLQNLLNVPKEEREAMFFGGLFSYDLVAGFEDLPQLSAENNCPDFCFYLAETLMVIDHQKKSTRIQASLFAPNEEEKQRLTARLNELRQQLTEAAPPLPVVSVPHMRCECNQSDEEFGGVVRLLQKAIRAGEIFQVVPSRRFSLPCPSPLAAYYVLKKSNPSPYMFFMQDNDFTLFGASPESSLKYDATSRQIEIIPLTAPPTNQWYHGKLDRTIAEERLRQAGKSGSYLIRESDRRPGSFVLSFLSQMNVVNHFRIIAMCGDYYIGGRRFSSLSDLIGYYSHVSCLLKGEKLLYPVAPPEPVEDRRRVRAILPYTKVPDTDEISFLKGDMFIVHNELEDGWMWVTNLRTDEQGLIVEDLVEEVGREEDPHEGKIWFHGKISKQEAYNLLMTVGQVCSFLVRPSDNTPGDYSLYFRTNENIQRFKICPTPNNQFMMGGRYYNSIGDIIDHYRKEQIVEGYYLKEPVPMQDQEQ
binding to EGFR-C (EGFR-C): bound only to the tyrosine phosphorylated EGFR-C
